{
  "source": "paper PMC11939060",
  "binders": {"B1": {"name": "30-bp FAM dsDNA (dsDNA)", "DNA 1": "CTGAATACTACTTGCGCTCTCTAACCTGAT", "DNA 2": "ATCAGGTTAGAGAGCGCAAGTAGTATTCAG"}},
  "assay_in_all_cases": "fluorescence polarization",
  "key": {"[1]": {"biological_target": "T1, DNMT3B Δ214 (3BΔ214);DNMT3L CLD (3L) (human;human?, UniProt Q9UBC3;Q9UJW3 215-853;179-379, |)", "T1 sequence (Q9UJW3 179-379, stated change not applied, chain 2 of 2, other chains not shown)": "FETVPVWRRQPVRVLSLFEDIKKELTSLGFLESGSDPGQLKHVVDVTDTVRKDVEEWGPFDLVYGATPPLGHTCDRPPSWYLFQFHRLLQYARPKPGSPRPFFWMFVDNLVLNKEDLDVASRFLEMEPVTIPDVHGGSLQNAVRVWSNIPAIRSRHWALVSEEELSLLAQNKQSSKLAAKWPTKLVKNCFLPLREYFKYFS"}, "[2]": {"biological_target": "T1, DNMT3B Δ214 (3BΔ214);DNMT3L CLD (3L)", "remark": "listed apart in the source"}, "[3]": {"biological_target": "T1, DNMT3B Δ214 (3BΔ214);DNMT3L CLD (3L)", "remark": "listed apart in the source"}, "DNMT3B PWWP domain": {"biological_target": "DNMT3B PWWP domain (human, UniProt Q9UBC3 206-355)"}, "DNMT3B PWWP K268A": {"biological_target": "DNMT3B PWWP K268A (human, UniProt Q9UBC3 206-355, K268A)"}, "[4]": {"biological_target": "T1, DNMT3B Δ214 (3BΔ214);DNMT3L CLD (3L)", "remark": "listed apart in the source"}, "[5]": {"biological_target": "T1, DNMT3B Δ214 (3BΔ214);DNMT3L CLD (3L)", "remark": "listed apart in the source"}},
  "note": "Read-outs that look alike come from different tables or passages of the source.",
  "data": [
    {"binder": "B1", "values": [
      {"measurement": "Kd", "setting": "[1]", "result": "2.34 ± 0.15", "unit": "µM"},
      {"measurement": "Kd", "setting": "[2]", "result": "3.5 ± 0.3", "unit": "µM"},
      {"measurement": "Kd", "setting": "[3]", "result": "3.51 ± 0.28", "unit": "µM"},
      {"measurement": "Kd", "setting": "DNMT3B PWWP domain", "result": "9.12 ± 0.67", "unit": "µM"},
      {"measurement": "Kd", "setting": "DNMT3B PWWP K268A", "result": "24.3 ± 2", "unit": "µM"},
      {"measurement": "Kd", "setting": "[4]", "result": "0.85 ± 0.07", "unit": "µM"},
      {"measurement": "Kd", "setting": "[5]", "result": "1.39 ± 0.12", "unit": "µM"}
    ]}
  ]
}
